Data from US20260167699A1 (Chugai, published 2026).

B1: GpH7-A5/GpH7-B3 variant Y300_18N/GpL16-k0 (antibody, human IgG1, kappa)
heavy 1: not shown
heavy 2: not shown
light: DIVMTQSPLSLPVTPGEPASISCQASESLVHSNRNTYLHWYLQKPGQSPQLLIYKVSNRFSGVPDRFSGSGSGTDFTLKISRVEAEDVGVYYCSQNTHVPPTFGQGTKVEIERTVAAPSVFIFPPSDEQLKSGTASVVCLLNNFYPREAKVQWKVDNALQSGNSQESVTEQDSKDSTYSLSSTLTLSKADYEKHKVYACEVTHQGLSSPVTKSFNRGEC
notes: copies: 1 + 1 + 2
B2: GpH7-A5/GpH7-B3 variant Y300_19Q/GpL16-k0 (antibody, human IgG1, kappa)
heavy 1: not shown
heavy 2: not shown
light: DIVMTQSPLSLPVTPGEPASISCQASESLVHSNRNTYLHWYLQKPGQSPQLLIYKVSNRFSGVPDRFSGSGSGTDFTLKISRVEAEDVGVYYCSQNTHVPPTFGQGTKVEIERTVAAPSVFIFPPSDEQLKSGTASVVCLLNNFYPREAKVQWKVDNALQSGNSQESVTEQDSKDSTYSLSSTLTLSKADYEKHKVYACEVTHQGLSSPVTKSFNRGEC
notes: copies: 1 + 1 + 2
B3: GpH7-A5/GpH7-B3 variant Y300_20W/GpL16-k0 (antibody, human IgG1, kappa)
heavy 1: not shown
heavy 2: not shown
light: DIVMTQSPLSLPVTPGEPASISCQASESLVHSNRNTYLHWYLQKPGQSPQLLIYKVSNRFSGVPDRFSGSGSGTDFTLKISRVEAEDVGVYYCSQNTHVPPTFGQGTKVEIERTVAAPSVFIFPPSDEQLKSGTASVVCLLNNFYPREAKVQWKVDNALQSGNSQESVTEQDSKDSTYSLSSTLTLSKADYEKHKVYACEVTHQGLSSPVTKSFNRGEC
notes: copies: 1 + 1 + 2
B4: GpH7-A5/GpH7-B3 variant H268_05P/GpL16-k0 (antibody, human IgG1, kappa)
heavy 1: not shown
heavy 2: not shown
light: DIVMTQSPLSLPVTPGEPASISCQASESLVHSNRNTYLHWYLQKPGQSPQLLIYKVSNRFSGVPDRFSGSGSGTDFTLKISRVEAEDVGVYYCSQNTHVPPTFGQGTKVEIERTVAAPSVFIFPPSDEQLKSGTASVVCLLNNFYPREAKVQWKVDNALQSGNSQESVTEQDSKDSTYSLSSTLTLSKADYEKHKVYACEVTHQGLSSPVTKSFNRGEC
notes: He Ab; copies: 1 + 1 + 2
B5: GpH7-A5/GpH7-B3 variant A327_05P/GpL16-k0 (antibody, human IgG1, kappa)
heavy 1: not shown
heavy 2: not shown
light: DIVMTQSPLSLPVTPGEPASISCQASESLVHSNRNTYLHWYLQKPGQSPQLLIYKVSNRFSGVPDRFSGSGSGTDFTLKISRVEAEDVGVYYCSQNTHVPPTFGQGTKVEIERTVAAPSVFIFPPSDEQLKSGTASVVCLLNNFYPREAKVQWKVDNALQSGNSQESVTEQDSKDSTYSLSSTLTLSKADYEKHKVYACEVTHQGLSSPVTKSFNRGEC
notes: He Ab; copies: 1 + 1 + 2
B6: GpH7-A5/GpH7-B3 variant A327_06M/GpL16-k0 (antibody, human IgG1, kappa)
heavy 1: not shown
heavy 2: not shown
light: DIVMTQSPLSLPVTPGEPASISCQASESLVHSNRNTYLHWYLQKPGQSPQLLIYKVSNRFSGVPDRFSGSGSGTDFTLKISRVEAEDVGVYYCSQNTHVPPTFGQGTKVEIERTVAAPSVFIFPPSDEQLKSGTASVVCLLNNFYPREAKVQWKVDNALQSGNSQESVTEQDSKDSTYSLSSTLTLSKADYEKHKVYACEVTHQGLSSPVTKSFNRGEC
notes: He Ab; copies: 1 + 1 + 2
B7: GpH7-A5/GpH7-B3 variant A327_09D/GpL16-k0 (antibody, human IgG1, kappa)
heavy 1: not shown
heavy 2: not shown
light: DIVMTQSPLSLPVTPGEPASISCQASESLVHSNRNTYLHWYLQKPGQSPQLLIYKVSNRFSGVPDRFSGSGSGTDFTLKISRVEAEDVGVYYCSQNTHVPPTFGQGTKVEIERTVAAPSVFIFPPSDEQLKSGTASVVCLLNNFYPREAKVQWKVDNALQSGNSQESVTEQDSKDSTYSLSSTLTLSKADYEKHKVYACEVTHQGLSSPVTKSFNRGEC
notes: He Ab; copies: 1 + 1 + 2
B8: GpH7-A5/GpH7-B3 variant A327_10E/GpL16-k0 (antibody, human IgG1, kappa)
heavy 1: not shown
heavy 2: not shown
light: DIVMTQSPLSLPVTPGEPASISCQASESLVHSNRNTYLHWYLQKPGQSPQLLIYKVSNRFSGVPDRFSGSGSGTDFTLKISRVEAEDVGVYYCSQNTHVPPTFGQGTKVEIERTVAAPSVFIFPPSDEQLKSGTASVVCLLNNFYPREAKVQWKVDNALQSGNSQESVTEQDSKDSTYSLSSTLTLSKADYEKHKVYACEVTHQGLSSPVTKSFNRGEC
notes: He Ab; copies: 1 + 1 + 2
B9: GpH7-A5/GpH7-B3 variant A327_13S/GpL16-k0 (antibody, human IgG1, kappa)
heavy 1: not shown
heavy 2: not shown
light: DIVMTQSPLSLPVTPGEPASISCQASESLVHSNRNTYLHWYLQKPGQSPQLLIYKVSNRFSGVPDRFSGSGSGTDFTLKISRVEAEDVGVYYCSQNTHVPPTFGQGTKVEIERTVAAPSVFIFPPSDEQLKSGTASVVCLLNNFYPREAKVQWKVDNALQSGNSQESVTEQDSKDSTYSLSSTLTLSKADYEKHKVYACEVTHQGLSSPVTKSFNRGEC
notes: He Ab; copies: 1 + 1 + 2
B10: GpH7-A5/GpH7-B3 variant A327_18N/GpL16-k0 (antibody, human IgG1, kappa)
heavy 1: not shown
heavy 2: not shown
light: DIVMTQSPLSLPVTPGEPASISCQASESLVHSNRNTYLHWYLQKPGQSPQLLIYKVSNRFSGVPDRFSGSGSGTDFTLKISRVEAEDVGVYYCSQNTHVPPTFGQGTKVEIERTVAAPSVFIFPPSDEQLKSGTASVVCLLNNFYPREAKVQWKVDNALQSGNSQESVTEQDSKDSTYSLSSTLTLSKADYEKHKVYACEVTHQGLSSPVTKSFNRGEC
notes: He Ab; copies: 1 + 1 + 2
B11: GpH7-A5/GpH7-B3 variant A327_19Q/GpL16-k0 (antibody, human IgG1, kappa)
heavy 1: not shown
heavy 2: not shown
light: DIVMTQSPLSLPVTPGEPASISCQASESLVHSNRNTYLHWYLQKPGQSPQLLIYKVSNRFSGVPDRFSGSGSGTDFTLKISRVEAEDVGVYYCSQNTHVPPTFGQGTKVEIERTVAAPSVFIFPPSDEQLKSGTASVVCLLNNFYPREAKVQWKVDNALQSGNSQESVTEQDSKDSTYSLSSTLTLSKADYEKHKVYACEVTHQGLSSPVTKSFNRGEC
notes: He Ab; copies: 1 + 1 + 2
B12: GpH7-A5/GpH7-B3 variant A327_20W/GpL16-k0 (antibody, human IgG1, kappa)
heavy 1: not shown
heavy 2: not shown
light: DIVMTQSPLSLPVTPGEPASISCQASESLVHSNRNTYLHWYLQKPGQSPQLLIYKVSNRFSGVPDRFSGSGSGTDFTLKISRVEAEDVGVYYCSQNTHVPPTFGQGTKVEIERTVAAPSVFIFPPSDEQLKSGTASVVCLLNNFYPREAKVQWKVDNALQSGNSQESVTEQDSKDSTYSLSSTLTLSKADYEKHKVYACEVTHQGLSSPVTKSFNRGEC
notes: He Ab; copies: 1 + 1 + 2
B13: GpH7-A5/GpH7-B3 variant A330_01G/GpL16-k0 (antibody, human IgG1, kappa)
heavy 1: not shown
heavy 2: not shown
light: DIVMTQSPLSLPVTPGEPASISCQASESLVHSNRNTYLHWYLQKPGQSPQLLIYKVSNRFSGVPDRFSGSGSGTDFTLKISRVEAEDVGVYYCSQNTHVPPTFGQGTKVEIERTVAAPSVFIFPPSDEQLKSGTASVVCLLNNFYPREAKVQWKVDNALQSGNSQESVTEQDSKDSTYSLSSTLTLSKADYEKHKVYACEVTHQGLSSPVTKSFNRGEC
notes: He Ab; copies: 1 + 1 + 2
B14: GpH7-A5/GpH7-B3 variant A330_03V/GpL16-k0 (antibody, human IgG1, kappa)
heavy 1: not shown
heavy 2: not shown
light: DIVMTQSPLSLPVTPGEPASISCQASESLVHSNRNTYLHWYLQKPGQSPQLLIYKVSNRFSGVPDRFSGSGSGTDFTLKISRVEAEDVGVYYCSQNTHVPPTFGQGTKVEIERTVAAPSVFIFPPSDEQLKSGTASVVCLLNNFYPREAKVQWKVDNALQSGNSQESVTEQDSKDSTYSLSSTLTLSKADYEKHKVYACEVTHQGLSSPVTKSFNRGEC
notes: He Ab; copies: 1 + 1 + 2
B15: GpH7-A5/GpH7-B3 variant A330_04F/GpL16-k0 (antibody, human IgG1, kappa)
heavy 1: not shown
heavy 2: not shown
light: DIVMTQSPLSLPVTPGEPASISCQASESLVHSNRNTYLHWYLQKPGQSPQLLIYKVSNRFSGVPDRFSGSGSGTDFTLKISRVEAEDVGVYYCSQNTHVPPTFGQGTKVEIERTVAAPSVFIFPPSDEQLKSGTASVVCLLNNFYPREAKVQWKVDNALQSGNSQESVTEQDSKDSTYSLSSTLTLSKADYEKHKVYACEVTHQGLSSPVTKSFNRGEC
notes: He Ab; copies: 1 + 1 + 2
B16: GpH7-A5/GpH7-B3 variant A330_06M/GpL16-k0 (antibody, human IgG1, kappa)
heavy 1: not shown
heavy 2: not shown
light: DIVMTQSPLSLPVTPGEPASISCQASESLVHSNRNTYLHWYLQKPGQSPQLLIYKVSNRFSGVPDRFSGSGSGTDFTLKISRVEAEDVGVYYCSQNTHVPPTFGQGTKVEIERTVAAPSVFIFPPSDEQLKSGTASVVCLLNNFYPREAKVQWKVDNALQSGNSQESVTEQDSKDSTYSLSSTLTLSKADYEKHKVYACEVTHQGLSSPVTKSFNRGEC
notes: He Ab; copies: 1 + 1 + 2

Molecular target: T1, FcγRIIIa (human, UniProt P08637 17-208)
T1 construct: extracellular domain; also called 3a; FcγRIIIa extracellular domain
T1 sequence (P08637 other isoform, or with tags, fused parts or gaps): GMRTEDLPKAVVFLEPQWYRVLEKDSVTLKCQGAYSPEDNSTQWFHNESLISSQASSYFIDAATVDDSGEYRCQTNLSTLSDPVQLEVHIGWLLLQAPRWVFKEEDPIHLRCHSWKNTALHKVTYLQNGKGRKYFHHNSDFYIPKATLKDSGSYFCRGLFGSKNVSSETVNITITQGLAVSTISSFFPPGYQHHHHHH
Assay: SPR (Biacore);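 further: antibody variants captured on an SPR sensor chip, with FcγRIIIa passed over as analyte in HBS-EP+ buffer at 25 °C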

**Q.** How did the “He/Con 3a” value turn out when B1 was run?
**A.** 96 % of GpH7-A5/GpH7-B3/GpL16-k0

**Q.** B2 was tested. Which “He/Con 3a” value did it give?
**A.** 105 % of GpH7-A5/GpH7-B3/GpL16-k0

**Q.** B3 was tested. Which “He/Con 3a” value did it give?
**A.** 101 % of GpH7-A5/GpH7-B3/GpL16-k0

Molecular target: T2, FcγRIIIa extracellular domain, C-terminal His tag (human, UniProt P08637 17-208)
T2 construct: extracellular domain; also called 3a
T2 sequence (P08637 other isoform, or with tags, fused parts or gaps): as above
Assay: SPR, binding activity relative to GpH7-A5/GpH7-B3/GpL16-k0 (=100)

**Q.** B4 was tested. Which “He/Con 3a” value did it give?
**A.** 75.6%

**Q.** B5 was tested. Which “He/Con 3a” value did it give?
**A.** 61.9%

**Q.** Which “He/Con 3a” value does the source give for B6 here?
**A.** 54%

**Q.** How did the “He/Con 3a” value turn out when B7 was run?
**A.** 86%

**Q.** For B8, which “He/Con 3a” value is on record?
**A.** 70.5%

**Q.** For B9, which “He/Con 3a” value is on record?
**A.** 66.7%

**Q.** With B10 as the binder, how does the “He/Con 3a” value read?
**A.** 62.8%

**Q.** With B11 as the binder, how does the “He/Con 3a” value read?
**A.** 54%

**Q.** For B12, which “He/Con 3a” value is on record?
**A.** 52.6%

**Q.** How did the “He/Con 3a” value turn out when B13 was run?
**A.** 87.3%

**Q.** For B14, which “He/Con 3a” value is on record?
**A.** 98.8%

**Q.** How did the “He/Con 3a” value turn out when B15 was run?
**A.** 144%

**Q.** How did the “He/Con 3a” value turn out when B16 was run?
**A.** 139%
